Here are results for 30 molecules from US20070249813A1 (AbbVie / Abbott, published 2007).

Changes are numbered by the printed parent chain.

B1: VH1-D2/LOE7 (format printed as IgG1/IgG4 in Table 6, scFv/IgG1/IgG4 in Table 7) (antibody, V domains shown)
VH: QVQLVESGGGLVQPGRSLRLSCAASGFTFDDYAMHWVRQAPGKGLDWVSAITWNSGHIDYADSVEGRFAVSRDNAKNALYLQMNSLRPEDTAVYYCAKVSYLSTASSLDYWGQGTLVTVSS
VL: not shown
B2: VH1-D2/2SD4 VL scFv (scFv, V domains shown)
VH: B1 VH
VL: DIQMTQSPSSLSASIGDRVTITCRASQGIRNYLAWYQQKPGKAPKLLIYAASTLQSGVPSRFSGSGSGTDFTLTISSLQPEDVATYYCQKYNSAPYAFGQGTKVEIK
notes: scFv
B3: 2SD4/2SD4 (format printed as scFv/IgG1/IgG4) (antibody, V domains shown)
VH: B1 VH with A97T, V99A, A105S, Y110N
VL: B2 VL
B4: VH1-D2.N/LOE7.T IgG4 (antibody, V domains shown)
VH: B1 VH with Y110N
VL: not shown
notes: IgG4
B5: VH1-D2.N/LOE7.A IgG4 (antibody, V domains shown)
VH: B1 VH with Y110N
VL: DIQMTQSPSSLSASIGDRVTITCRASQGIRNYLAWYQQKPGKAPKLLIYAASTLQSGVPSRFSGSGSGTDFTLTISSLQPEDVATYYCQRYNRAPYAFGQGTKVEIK
notes: IgG4
B6: VH1-D2.Y/LOE7.A IgG4 (antibody, V domains shown)
VH: B1 VH
VL: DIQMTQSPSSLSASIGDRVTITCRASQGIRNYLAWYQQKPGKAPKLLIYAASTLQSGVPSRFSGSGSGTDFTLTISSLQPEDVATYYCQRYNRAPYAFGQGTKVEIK
notes: IgG4
B7: VH1-D2/LOE7 scFv (scFv, V domains shown)
VH: B1 VH
VL: not shown
notes: scFv; not shown: the scFv linker and the order of the domains
B8: 2SD4 VH/VL100D2 scFv (scFv, V domains shown)
VH: B1 VH with A97T, V99A, A105S, Y110N
VL: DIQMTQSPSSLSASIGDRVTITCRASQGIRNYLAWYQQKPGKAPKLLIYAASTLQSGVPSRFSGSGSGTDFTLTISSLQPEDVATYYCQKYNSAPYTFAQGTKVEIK
notes: scFv
B9: VH1-D2/EP B12 scFv (scFv, V domains shown)
VH: B1 VH
VL: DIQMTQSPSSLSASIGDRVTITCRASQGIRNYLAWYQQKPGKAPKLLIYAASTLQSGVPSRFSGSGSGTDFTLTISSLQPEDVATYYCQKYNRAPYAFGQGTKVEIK
notes: scFv
B10: 2SD4 VH/VL1B7 scFv (scFv, V domains shown)
VH: B1 VH with A97T, V99A, A105S, Y110N
VL: B2 VL with K90Q, Y96D, A97T, F98W
notes: scFv
B11: VH1B12/2SD4 VL scFv (scFv, V domains shown)
VH: B1 VH with V99A, A105S, S106F
VL: B2 VL
notes: scFv
B12: 2SD4 VH/VL0.1F4 scFv (scFv, V domains shown)
VH: B1 VH with A97T, V99A, A105S, Y110N
VL: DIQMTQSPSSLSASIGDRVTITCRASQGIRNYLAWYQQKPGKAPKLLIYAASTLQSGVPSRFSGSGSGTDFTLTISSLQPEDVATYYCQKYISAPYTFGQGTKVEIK
notes: scFv
B13: VH1A11/2SD4 VL scFv (scFv, V domains shown)
VH: B1 VH with A97T, V99A, A105S, Y110D
VL: B2 VL
notes: scFv
B14: VH1G1/2SD4 VL scFv (scFv, V domains shown)
VH: B1 VH with V93A, V99A, A105S
VL: B2 VL
notes: scFv
B15: 2SD4 VH/VL10F4 scFv (scFv, V domains shown)
VH: B1 VH with A97T, V99A, A105S, Y110N
VL: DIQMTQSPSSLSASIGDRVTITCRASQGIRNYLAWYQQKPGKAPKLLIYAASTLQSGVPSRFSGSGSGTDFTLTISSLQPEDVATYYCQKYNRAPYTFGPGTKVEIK
notes: scFv
B16: 2SD4 VH/VL100A9 scFv (scFv, V domains shown)
VH: B1 VH with A97T, V99A, A105S, Y110N
VL: B2 VL with N92S, A97T
notes: scFv
B17: 2SD4 VH/VLLOG9 scFv (scFv, V domains shown)
VH: B1 VH with A97T, V99A, A105S, Y110N
VL: B2 VL with N92T, A97T
notes: scFv
B18: VH1E4/2SD4 VL scFv (scFv, V domains shown)
VH: B1 VH with V99A, A105S, D109H
VL: B2 VL
notes: scFv
B19: 2SD4 VH/VL10E4 scFv (scFv, V domains shown)
VH: B1 VH with A97T, V99A, A105S, Y110N
VL: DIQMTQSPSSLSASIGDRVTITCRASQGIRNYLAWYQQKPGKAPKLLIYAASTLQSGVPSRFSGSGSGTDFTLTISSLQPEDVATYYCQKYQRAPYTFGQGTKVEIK
notes: scFv
B20: 2SD4 VH/VLLOG7 scFv (scFv, V domains shown)
VH: B1 VH with A97T, V99A, A105S, Y110N
VL: B2 VL with A97N
notes: scFv
B21: 2SD4 VH/VLLOH1 scFv (scFv, V domains shown)
VH: B1 VH with A97T, V99A, A105S, Y110N
VL: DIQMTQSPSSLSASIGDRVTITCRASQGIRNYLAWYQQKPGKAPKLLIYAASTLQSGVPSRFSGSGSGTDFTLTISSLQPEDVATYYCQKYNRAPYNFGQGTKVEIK
notes: scFv
B22: 2SD4 VH/VL1C7 scFv (scFv, V domains shown)
VH: B1 VH with A97T, V99A, A105S, Y110N
VL: B2 VL with A97N
notes: scFv
B23: VH1F6/2SD4 VL scFv (scFv, V domains shown)
VH: B1 VH with V99A, Y101F, A105S, D109E
VL: B2 VL
notes: scFv
B24: 2SD4 VH/EP B12 scFv (scFv, V domains shown)
VH: B1 VH with A97T, V99A, A105S, Y110N
VL: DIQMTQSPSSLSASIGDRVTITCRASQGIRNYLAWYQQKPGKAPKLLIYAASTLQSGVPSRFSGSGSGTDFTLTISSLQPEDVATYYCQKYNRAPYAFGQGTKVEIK
notes: scFv
B25: 2SD4 VH/VL0.1H8 scFv (scFv, V domains shown)
VH: B1 VH with A97T, V99A, A105S, Y110N
VL: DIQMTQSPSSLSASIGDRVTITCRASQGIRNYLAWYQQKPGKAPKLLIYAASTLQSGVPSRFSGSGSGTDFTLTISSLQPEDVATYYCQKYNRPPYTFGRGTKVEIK
notes: scFv
B26: 2SD4 VH/VL1C1 scFv (scFv, V domains shown)
VH: B1 VH with A97T, V99A, A105S, Y110N
VL: B2 VL with A94D, A97T
notes: scFv
B27: 2SD4 VH/VLLOH10 scFv (scFv, V domains shown)
VH: B1 VH with A97T, V99A, A105S, Y110N
VL: B2 VL with P95A, A97S
notes: scFv
B28: VH1B11/2SD4 VL scFv (scFv, V domains shown)
VH: B1 VH with A97T, V99A, A105S, Y110K
VL: B2 VL
notes: scFv
B29: 2SD4 VH/VLL0F10 scFv (scFv, V domains shown)
VH: B1 VH with A97T, V99A, A105S, Y110N
VL: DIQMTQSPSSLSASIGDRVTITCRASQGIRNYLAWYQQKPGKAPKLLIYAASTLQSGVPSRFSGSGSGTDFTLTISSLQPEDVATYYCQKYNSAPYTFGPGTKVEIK
notes: scFv
B30: VH1D8/2SD4 VL scFv (scFv, V domains shown)
VH: B1 VH with K98R, V99A, A105S
VL: B2 VL
notes: scFv

T1 sequence (P01375 77-233 limits assumed): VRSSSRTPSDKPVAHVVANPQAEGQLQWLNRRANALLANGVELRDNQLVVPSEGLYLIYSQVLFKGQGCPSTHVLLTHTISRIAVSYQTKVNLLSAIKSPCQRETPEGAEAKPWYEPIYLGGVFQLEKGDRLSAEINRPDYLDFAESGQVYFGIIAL

The first assay concerns the target T1, biotinylated recombinant human TNFα (human, UniProt P01375 77-233, biotinylated (D-biotinyl-ε-aminocaproic acid N-hydroxysuccinimide ester, 2:1 molar ratio of biotin to rhTNFα)).
T1 construct: mature; Immobilized via streptavidin on the BIAcore chip; also called biotinylated rhTNFα; biotinylated rhTNF
Description: SPR (BIAcore), biotinylated rhTNFα, format IgG1/IgG4. (In SPR one partner is held on a chip, and binding of the other changes the refractive index at the surface.)
Description: (§1) Before injection of the protein and immediately afterward, PBS buffer alone flowed through each flow cell. […] Antibodies (20 μg/ml) were diluted in PBS running buffer and 25 μl aliquots were injected through the immobilized protein matrices at a flow rate of 5 μl/min. Prior to injection of antibody, and immediately afterwards, PBS buffer alone flowed through each flow cell. The net difference in baseline signal and signal after completion of antibody injection was taken to represent the binding value of the particular sample. Biosensor matrices were regenerated using 100 mM HCI before injection of the next sample. To determine the off rate (Koff), on rate (Kₒₙ), association rate (Kₐ) and dissociation rate (Kd) constants, BIAcore kinetic evaluation software (version 2.1) was used.
As a reminder, the koff is the rate constant with which the complex falls apart. For the molecule B1, the off-rate constant (koff) came out at 7.7e-05 s⁻¹.

The next assay has as its target T1, biotinylated recombinant human TNFα. Nature of the assay: SPR (BIAcore), scFv; reference taken to be VH1-D2/LOE7.
Description: as §1
For B2, the “fold faster off rate” value was 5 fold.

The target of a further assay is recombinant human TNFα (human, UniProt P01375 77-233, The active form is a noncovalent homotrimer; one protomer is given.). Nature of the assay: cell-based or functional assay.
Sequence of recombinant human TNFα (P01375 77-233 limits assumed): as above
Turning to B1, the “IC50, neutralization of TNFα-induced L929 cytotoxicity” value was determined as 0.34 nM. The same measure, in the same setting: as for B3, the figure is 300 nM.

Consider B4, for which the “IC50, neutralization of TNFα-induced L929 cytotoxicity” value amounted to 0.13 nM. Same read-out and setting: as for B2, the figure is 10 nM; as for B5, 0.062 nM. The same measure, in the same setting: with B6 the figure was 0.028 nM.

Another assay concerns the target T1, biotinylated recombinant human TNFα. Description: SPR (BIAcore), biotinylated rhTNFα, scFv.
Description: as §1
As for B7, the koff was determined as 0.00046 s⁻¹. On to B8, for which the koff was found to be 0.0141 s⁻¹.

For B9, the koff came out at 0.0008 s⁻¹. Consider B10, for which the dissociation rate constant (koff) worked out at 0.013 s⁻¹. For B11, the koff was found to be 0.0101 s⁻¹. On the same count and under the same terms, as for B12, the figure is 0.0176 s⁻¹. On the same count and under the same terms, with B13 the figure was 0.0134 s⁻¹; with B14, 0.0214 s⁻¹; with B15, 0.0111 s⁻¹. For the molecule B16, the koff is 0.0133 s⁻¹. On to B2, for which the koff worked out at 0.00194 s⁻¹. The same measure, in the same setting: as for B17, the figure is 0.0146 s⁻¹.

For B18, the koff was 0.0159 s⁻¹. The same measure, in the same setting: as for B19, the figure is 0.0096 s⁻¹; as for B20, 0.0156 s⁻¹. Regarding B21, the koff was 0.0117 s⁻¹. Still for that read-out and setting: with B22 the figure was 0.02 s⁻¹. Turning to B23, the koff turned out to be 0.0229 s⁻¹. Consider B24, for which the koff was 0.0067 s⁻¹.

For B25, the off-rate constant (koff) turned out to be 0.0114 s⁻¹.

Regarding B26, the koff came out at 0.0136 s⁻¹. In the case of B27, the koff amounted to 0.0112 s⁻¹.

For the molecule B28, the koff worked out at 0.0098 s⁻¹. Same read-out and setting: as for B29, the figure is 0.0134 s⁻¹; as for B30, 0.0095 s⁻¹.

The target is the same in the next assay. Description: SPR (BIAcore), scFv, reference VH1-D2/LOE7.
Description: as §1
In the case of B9, the “fold faster off rate against LOE7” value is 2 fold.

A further assay shares this target. Description: SPR (BIAcore), biotinylated rhTNFα, IgG4.
Description: as §1
Turning to B4, the off-rate constant (koff) came out at 2.1e-05 s⁻¹. The same measure, in the same setting: with B5 the figure was 3.2e-05 s⁻¹. As to B6, the off-rate constant (koff) came to 2.7e-05 s⁻¹.
